The target in test [1] is HcA2 (receptor binding domain of BoNT/A2), HA- and His6-tagged, for binding studies (Clostridium botulinum A2 Kyoto-F, UniProt Q45894 874-1296). The test can be described thus: […]; Hepes buffer (50 mM Hepes pH 7.5, 150 mM NaCl); […]. Conditions: both partners purified.
Test [2] addresses HcA1 (receptor binding domain of BoNT/A1), HA- and His6-tagged, for binding studies (Clostridium botulinum, UniProt A2I2U2 876-1296). Briefly: pull-down. The settings on record: both partners purified.

Experimental findings from publication PMC5923319 (Toxins, 2018) are described below.

B1: GST-fused recombinant human SV2C-L4 (domain or fragment, UniProt Q496J9 454-580, looked up)
chain: FPDVIKPLQSDEYALLTRNVERDKYANFTINFTMENQIHTGMEYDNGRFIGVKFKSVTFKDSVFKSCTFEDVTSVNTYFKNCTFIDTVFDNTDFEPYKFIDSEFKNCSFFHNKTGCQITFDDDYSAY
notes: also called non-glycosylated SV2C
On to B1, for which the binding result in test [1] and in test [2] was “binds” throughout.

B2: GST-fused recombinant human SV2B-L4 (domain or fragment, UniProt Q7L1I2 410-536, looked up)
chain: WFPDMIRYFQDEEYKSKMKVFFGEHVYGATINFTMENQIHQHGKLVNDKFTRMYFKHVLFEDTFFDECYFEDVTSTDTYFKNCTIESTIFYNTDLYEHKFINCRFINSTFLEQKEGCHMDLEQDNDF
notes: also called non-glycosylated SV2B
B2: the binding result in test [2] is recorded as “binds”.

B3: GST-fused recombinant human SV2A-L4 (domain or fragment, UniProt Q7L0J3 468-596, looked up)
chain: FPDMIRHLQAVDYASRTKVFPGERVEHVTFNFTLENQIHRGGQYFNDKFIGLRLKSVSFEDSLFEECYFEDVTSSNTFFRNCTFINTVFYNTDLFEYKFVNSRLINSTFLHNKEGCPLDVTGTGEGAYM
notes: also called non-glycosylated SV2A
As for B3, the binding result in test [2] is “binds”.
